# In patent US20230303681A1 (published 2023):
# B1: anti-TMEM106B antibody TM-4 (antibody, V domains shown)
# VH: EVQVQQSGPVLVKPGASVKMSCKASGYTFTDYYMNWVKQSHGKNLEWIGVINPYNGGTSYHQKFKGKATLTVDKSSSTAYMELNSLTSEDSAVYYCARAATVVAGFDYWGQGTTLTVSS
# VL: QAVVTQESALTTSPGETVTLTCRSSTGAVTTSNYANWVQEKPDHLFTGLIGGTNNRAPGVPARFSGSLIGDKAALTITGAQTEDEAIYFCVLWYSNHLVFGGGTKLTVL
# Key:
# human TMEM106B [1] = target: T1, human TMEM106B (human, UniProt Q9NUM4 2-274); experiment: FACS U251;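 note: flow cytometry of cells exposed to antibody (purified at 10 µg/mL, or hybridoma supernatant) for 1 h on ice, with propidium iodide-positive dead cells gated out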
# T1 construct: Full-length, on transiently transfected HEK293 cells, or natively expressed on HeLa, U251 and A549 cells; also called huTMEM106B; huTMEM
# human TMEM106B [2] = target: T1, human TMEM106B; experiment: FACS HeLa;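 note: flow cytometry of cells incubated with hybridoma supernatant or purified antibody at 10 µg/ml for 1 h on ice, propidium iodide–positive dead cells gated out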
# Method: All cells were cultured in either T75 or T150 flasks. […] The enzyme was quenched by addition of fresh media, and the cells were then distributed into 96-well plates for FACS analysis.
# FACS analysis was performed as follows. Each cell type was aliquoted in 96-well round bottom plates (2x10^5 cells per well), washed once with FACS buffer (PBS + 2% FBS + 1 mM EDTA), and incubated with 50 µL of hybridoma supernatant or purified antibody (10 µg/ml in FACS buffer) on ice for 1 hour. […] Following this secondary incubation, the cells were again washed 2x with ice-cold FACS buffer and resuspended in a final volume of 50 µL of FACS buffer + 0.25 µl/well propidium iodide (Fisher Scientific # BDB556463). Analysis was performed on a FACSCanto system (BD Biosciences) or iQue (Intellicyt), with sort gates drawn to exclude dead (i.e., propidium iodide positive) cells.
# Data is presented as mean fluorescence intensity (MFI).
# human TMEM106B [3] = target: T1, human TMEM106B; experiment: FACS HEK+huTMEM, 1.0 ug/ml
# human TMEM106B [4] = target: T1, human TMEM106B; experiment: FACS A549, 1 ug/ml
# human TMEM106B [5] = target: T1, human TMEM106B; experiment: FACS HEK+huTMEM, 10 ug/ml;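 note: purified mouse IgG antibodies at 10 µg/ml bound to HEK293 cells transiently expressing human TMEM106B, measured by flow cytometry as median fluorescence intensity of propidium iodide negative live cells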
# Method: (§1) Purified anti-TMEM106B antibodies were evaluated for their binding affinity to various TMEM106B-expressing cell lines including HEK293 transiently transfected with human/cyno/mouse TMEM106B, as well as HeLa cells and A549 cells. Antibodies tested for this experiment were mouse IgGs purified from hybridoma supernatant. Affinity binding to cells was determined as follows. Briefly, 1x10^5 cells were aliquoted per well in 96-well round bottom plates and incubated with 50 µL of purified anti-TMEM106B antibody at various concentrations (10x dilutions starting at 10 µg/ml) in FACS buffer (PBS + 2% FBS + 1 mM EDTA). […] Sorting was performed on a iQue (Intellicyt), with sort gates drawn to exclude dead (propidium iodide +) cells. Binding data was analyzed using median fluorescent intensity (MFI) and graphed in Prism. Values presented are MFI.
# human TMEM106B [6] = target: T1, human TMEM106B; experiment: FACS, HEK293 transfectants;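 for fold over negative controls: hybridoma supernatants incubated 30 min on ice with human TMEM106B-expressing HEK293 cells, binding read as anti-mouse-APC median fluorescence on live cells, relative to secondary-antibody-only wells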;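 for fold-change over parental HEK293: flow cytometry binding of hybridoma supernatants to HEK293 cells transiently expressing human, cyno or mouse TMEM106B, read as anti-mouse-APC median fluorescence, live cells only, 30 min on ice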
# human TMEM106B [7] = target: T1, human TMEM106B; experiment: FACS, HEK293 transfectants; remark: listed apart in the source;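 for fold over negative controls: hybridoma supernatants incubated 30 min on ice with human TMEM106B-expressing HEK293 cells, binding read as anti-mouse-APC median fluorescence on live cells, relative to secondary-antibody-only wells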;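 for fold-change over parental HEK293: flow cytometry binding of hybridoma supernatants to HEK293 cells transiently expressing human, cyno or mouse TMEM106B, read as anti-mouse-APC median fluorescence, live cells only, 30 min on ice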
# [8] = target: T2, cynomolgus (cyno) TMEM106B (cynomolgus, UniProt Q9NUM4 2-274 (human entry)); experiment: FACS, HEK293 transfectants;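 note: flow cytometry binding of hybridoma supernatants to HEK293 cells transiently expressing human, cyno or mouse TMEM106B, read as anti-mouse-APC median fluorescence, live cells only, 30 min on ice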
# T2 construct: on transiently transfected HEK293 cells
# GST (Pierce) = target: T3, GST (Pierce) (UniProt P08515 1-218 = GST, limits assumed); experiment: ELISA, coated GST;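 note: ELISA on plates coated with GST alone at 1-10 µg/ml, antibodies applied at 100-1000x dilution, bound antibody detected by peroxidase substrate colour after acid stop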
# T3 construct: control for the GST part of the fusion protein; also called GST protein; Glutathione-S-transferase
# Method: (§2) Briefly, 96-well polystyrene plates were coated with 1-10 µg/ml of recombinant GST-TMEM106B-truncated protein or GST (Pierce) in PBS either at 370 Cfor 1-4 hours or overnight at 4 °C. Coated plates were then blocked with 5% BSA for 1-hour, washed 3×150 µL in TBST (Tris-buffered saline + 0.1% Tween20), and then the antibodies were added at various dilutions (100-1000x) in PBS. After 1-hour incubation (room temperature, with shaking), the plates were washed 3x150 µL in TBST. […] After a final set of washes (3×150µL in TBST), 100 µL of peroxidase substrate was added for 1 minute; the reaction was then quenched with 2N sulfuric acid (100 µL).
# human TMEM106B [9] = target: T1, human TMEM106B; experiment: FACS HEK+huTMEM, 0.01 ug/ml
# Method: as §1
# human TMEM106B [10] = target: T1, human TMEM106B; experiment: FACS A549, 10 ug/ml
# Method: as §1
# human TMEM106B [11] = target: T1, human TMEM106B; experiment: FACS HEK+huTMEM, 0.1 ug/ml;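 note: flow cytometry binding of purified mouse IgG antibodies to HEK293 cells transiently expressing TMEM106B, read as median fluorescence intensity with propidium iodide positive dead cells gated out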
# [12] = target: T4, GST-fusion human TMEM106B truncated (human); experiment: ELISA, supernatant 100-1000x
# T4 construct: also called GST-TMEM106B-truncated protein; GST-TMEM106B (truncated)
# Method: as §2
# human TMEM106B [13] = target: T1, human TMEM106B; experiment: FACS A549
binder,measurement,setting,value
B1,MFI,human TMEM106B [1],349
same,MFI,human TMEM106B [2],323
same,MFI,human TMEM106B [3],415
same,MFI,human TMEM106B [4],373
same,MFI,human TMEM106B [5],846
same,fold over negative controls,human TMEM106B [6],> 2 fold
same,fold-change over parental HEK293,human TMEM106B [7],1.13 fold
same,fold-change over parental HEK293,[8],2.08 fold
same,binding result,GST (Pierce),no binding
same,MFI,human TMEM106B [9],282
same,MFI,human TMEM106B [10],443
same,MFI,human TMEM106B [11],304
same,binding result,[12],no binding
same,MFI,human TMEM106B [13],916
